Biological target: FLAG-tagged rainbow trout IL-2 (IL-2A), expressed in insect cells (rainbow trout (Oncorhynchus mykiss))
Assay: SEC

FLAG-tagged rainbow trout IL-2 (IL-2A), expressed in insect cells (ligand)
stoichiometry N: 2

Reference: paper doi:10.1101/644955
